Data: patent US7670820B2, “Chitinase and uses thereof” (Academia Sinica, priority 2007, dated 2010)
Where “and” joins values, the source holds several entries; their conditions need not be identical. Identical values can stand only once. Like-named read-outs stand apart in the source and are kept apart here.

Experiments:
CpCHI = format: biochemical, Carica papaya
Experimental: (§1) Chitinase activity was generally measured using glycol chitin as a substrate. All enzymes other than CpCHI, were purchased from Promega (Madison, Wis.). Chemicals were purchased from Merck (Darmstadt, Germany). An enzyme solution (10 μL) was added to 100 μL of 1% (w/v) glycolchitin dissolved in 90 μL of a sodium acetate buffer (100 mM, pH 5.0), and was incubated at 30° C. for 3 hours. The reducing end group produced was measured calorimetrically at 420 nm with 200 μL of a potassium ferricyanide (K3Fe(CN)6) reagent according to the method descried in Boller et al., 1983, Planta. 157, 22-31. Reduced sugar levels were determined relative to N-acetyl-β-D-glucosamine standards of 0-150 μg mL^−1. One unit of chitinase activity is defined as the amount of enzyme producing 1 μmol reducing sugar per minute at 30° C. Substrate and enzyme blanks were also prepared in which the enzyme or substrate was incubated with a buffer. All measured values of absorbency were normalized against appropriate blank absorbencies. In this example, collodial chitin and chitosan were also used as substrate for subtract specificity analysis.
To analyze the effect of metals and other factors on chitinase activity, the enzyme was preincubated with a 10 mM of different metals and inhibitors. After 30 minutes, the remaining chitinase activity was measured in the manner described above.

[1] = Chitinase activity with glycol chitin as substrate (colorimetric reducing-sugar assay); format: biochemical
Experimental: as §1
The optimal pH of the chitiolytic activity of CpCHI was determined by incubating the purified recombinant enzyme (5 μg) at different pH (3-10) at 30° C. for 3 hours using glycol chitin as the substrate. An acetate buffer (100 mM) was used for pH 3-5, a phosphate buffer (100 mM) for pH 6˜7, a Tris-HCl buffer (100 mM) for pH 8, and a glycine-NaOH buffer for pH 9 and 10. The optimal temperature was determined by incubating the purified chitinase (5 μg) at different temperatures (10˜90° C.) at pH 6.0 for 3 hours using glycol chitin as the substrate. The highest activity was calculated as relative activity (RA) 100%.

Rhizoctonia solani = test: Antifungal activity, growth / hypha extension inhibition; format: cell-based
Experimental: (§2) The antifungal activity of recombinant chitinase protein was assessed by the hypha extension inhibition assay. Sclerotium rolfsii and Phytophthora sp. were provided from Hualien District Agricultural Research and Extension Station. Rhizoctonia solani and Alternaria brassicicola were provided by Dr. Jenn-Wen Hung of the Department of Plant Pathology of National Chung-Hsing University. A disc of each strain of fungus was removed from an actively growing fungal culture, and placed in the center of a fresh potato dextrose agar plate. After incubation at room temperature for 3 to 4 days, the recombinant chitinase or a control buffer (10 mM Tris-HCl pH7.5, 1 mM EDTA) were separately applied into a pool, which was 1 cm from the perimeter. The inhibition of the hypha extension was detected as a crescent-shaped zone of inhibition around the peripheral disc as the fungus grew out from the central disc.
(§3) The effects of recombinant CpCHI on the growth of Phytophthora sp., Sclerotium rolsii, and Rhizoctonia solani were examined using standard methods. Disease resistance assays were carried out using detached leaves of cabbage, bell pepper, and tomato that were inoculated with each of the pathogens. Cabbage (Brassica oleracea), bell pepper (Capsicam annuum), and tomato (Solanum lycopersicum) were obtained from Known-You Seed CO., LTD. An agar plug containing the pathogen was placed on the center of leaves. At day 1 day after inoculation, the detached leaves began to show lesions surrounded by yellow halos. Then, different solutions, including H2O, a TE buffer (10 mM Tris-HCl pH 7.5, 1 mM EDTA), or 5, 10, 15 μM CpCHI in the TE buffer was sprayed onto the leaves. At day 4 after inoculation, the pathogenesis inhibition by 5, 10, or 15 μM CpCHI was about 37%, 83%, and 98%, respectively (Table 3). […] Also, recombinant CpCHI inhibited the growth of these three fungi with as little as 15 μM, and the inhibited activity lasted for 7 days.

Phytophthora sp. = test: as above; format: cell-based
Experimental: as §2, §3

Sclerotium rolfsii [2] = test: as above; format: cell-based
Experimental: as §2, §3

[3] = Chitinase substrate specificity, chitosan as substrate; format: biochemical; settings: relative to glycol chitin
Experimental: as §1

E. coli AD494 = test: Antibacterial activity, growth suppression (density at 600 nm); format: cell-based; settings: E. coli AD494, LB medium
Experimental: (§4) Experiments were conducted to examine recombinant CpCHI's ability to suppress the growth of E. coli ED2566 or E. coli AD494. Briefly, the E. coli strain was grown at 37° C. in an LB medium with shaking at 225 rpm overnight. Then, the overnight culture was 100× diluted in a fresh LB medium containing 1 μM, 1.5 μM, 2 μM, 2.5 μM, or 3 μM CpCHI. A TE buffer (10 mM Tris-HCl pH7.5, 1 mM EDTA) was used as a control. Changes in density at 600 nm were monitored. The assays were conducts in triplicates and the average were recorded to examine the inhibition of bacterial growth.

E. coli ED2566 = test: as above; format: cell-based; settings: E. coli ED2566, LB medium
Experimental: as §4

Sclerotium rolfsii [4] = test: Disease resistance assay on detached leaves; format: in vivo; settings: for pathogenesis inhibition: day 4 after inoculation
Experimental: as §3

[5] = Chitinase substrate specificity, collodial chitin as substrate; format: biochemical; settings: relative to glycol chitin
Experimental: as §1

Alternaria brassicicola = test: Inhibition of spore germination; format: cell-based; settings: 24° C. for 24 hours
Experimental: Assays were also carried out to examine effects of CpCHI on Alternaria brassicicola, a fungus isolated from cabbages. The fungus was cultured in potato dextrose agar (DIFCO) for 2 weeks. After sporulation, the spores of the fungus were suspended in water to a concentration of 10^4 spores mL^−1. A fungal spore stock (approximately 500 spores) was cultured at 24° C. for 24 hours in the following solutions: (A) H2O, (B) TE buffer (10 mM Tris-HCl pH 7.5, 1 mM EDTA), (C) 5 μM CpCHI in TE buffer, and (D) 10 μM CpCHI in TE buffer. The inhibition of spore germination was examined under a light microscope at 200× amplification (Li et al., 2003, Plant Cell Physiol. 44, 1162-1167). The percentage of germination was calculated from 10 different observations. All experiments were conducted in triplicates.

[6] = format: physicochemical
Experimental: The pH stability of recombinant CpCHI was determined. Briefly, purified recombinant CpCHI was incubated in buffers with pH from 3.0 to 10.0 at 30° C. for 3 hours. The residual activity was then determined at a standard condition (30° C. for 3 hours at pH 6.0). The results were averaged from three independent experiments.
The stability of recombinant CpCHI during long-term storage was examined. […] The enzyme retained more than 60% of its activity for 3 weeks at 30° C. and more than 50% activity for 3 weeks at 37° C. The results were also averaged from three independent experiments.

[7] = HPLC analysis of chitin hydrolysis by CpCHI; format: biochemical
Experimental: Chitin hydrolysis was carried out in a phosphate buffer (100 mM, pH 6) at 30° C. with shaking. The concentrations of chitinase and glycol chitin suspension were 750 ng μL^−1 and 100 μg mL^−1, respectively. The reactions were quenched with 10% (v/v) acetic acid. […] The column was connected to an Agilent Technologies 1100 series HPLC system under the control of a Thermo Finnigan LCQ DECA electrospray mass spectrometer. The mass-to-charge ratios (m/z) of the expected oligosaccharides were selected as follows: Glc-NAc (221.9), (GlcNAc)2 (425.5), (GlcNAc)3 (627.6), (GlcNAc)4 (830.8), (GlcNAc)5 (1034.0), (GlcNAc)6 (1237.2), and (GlcNAc)7 (1440.0).

[8] = enzyme preincubated 30 minutes with 10 mM reagent

In the case of `[Cl-].[K+]` [KCl], the “reduction / inhibition of CpCHI activity” value (CpCHI; 10 mM) is reported as 7.67% and the “Relative activity (%) of CpCHI” value (CpCHI; [8]) is reported as 92.33 ± 1.53%.

For `O=C(O)CN(CCN(CC(=O)O)CC(=O)O)CC(=O)O` [EDTA], the “Relative activity (%) of CpCHI” value (CpCHI) was 93.33 ± 3.06% and the “reduction / inhibition of CpCHI activity” value (CpCHI) was 6.67%.

With `[Cl][Mn][Cl]` [MnCl2] the “reduction / inhibition of CpCHI activity” value (CpCHI; 10 mM) was 64.7% and the “Relative activity (%) of CpCHI” value (CpCHI; [8]) was 35.33 ± 3.06%.

In the case of `[Cl][Hg][Cl]` [HgCl2], the “reduction / inhibition of CpCHI activity” value (CpCHI; 10 mM) is reported as “completely” and the “Relative activity (%) of CpCHI” value (CpCHI; [8]) is reported as 0%.

For `O=S(=O)([O-])[O-].[Zn+2]` [ZnSO4], the “reduction / inhibition of CpCHI activity” value (CpCHI; 10 mM) was 62.0% and the “Relative activity (%) of CpCHI” value (CpCHI; [8]) was 38.00 ± 3.61%.

With `O=[N+]([O-])[O-].[Ag+]` [AgNO3] the “reduction / inhibition of CpCHI activity” value (CpCHI; 10 mM) was 16.33% and the “Relative activity (%) of CpCHI” value (CpCHI; [8]) was 83.67 ± 2.52%.

With `O=S(=O)([O-])[O-].[Cu+2]` [CuSO4] the “reduction / inhibition of CpCHI activity” value (CpCHI; 10 mM) was 60% and the “Relative activity (%) of CpCHI” value (CpCHI; [8]) was 40.00 ± 7.2%.

In the case of `[Cl][Fe]([Cl])[Cl]` [FeCl3], the “reduction / inhibition of CpCHI activity” value (CpCHI; 10 mM) is reported as 29.33% and the “Relative activity (%) of CpCHI” value (CpCHI; [8]) is reported as 70.67 ± 3.06%.

B1: CpCHI: novel class IV chitinase from papaya (Carica papaya) fruit, mature form expressed in E. coli and purified on Ni-NTA (protein, listed as Carica papaya)
chain: QNCGCAPNLCCSRFGFCGQGEAYCGEGCREGPCNKPSPTPGGGSSLAEIVTPDFFNGIINQAAAGCAGKSFCSRGGFLDAANSFPEFGKLGSVDDSKREIAAFFAHVTHETGHFCHIEEINGASHDYCDEGNTQYPCAPGKNYFGRGPIQLTWNYNYGAAGDALRLNLLGSPEMVARDAAVSFKTALWFWMKNVRPVINQGFGATIRAINGAIECNGGNPGTVQARIGYYRDYCAKFGVAPGENLSC
For B1, the “broad pH optima” value ([1]; 30° C., 3 hours, glycol chitin) was 5.0-9.0, the “optimal pH for the enzyme activity” value ([1]; 30° C., 3 hours, glycol chitin) was 6.0 and the “optimal temperature for the enzyme activity” value ([1]; pH 6.0, 3 hours, glycol chitin) was 30 °C. The specific activity ([1]; recombinant protein after dialysis, spectrophotometric assay, glycol chitin) was 14.8 U mg^−1, the “Relative activity toward glycol chitin” value ([1]; substrate glycol chitin) was 100% and the “activity maintained at different temperatures” value ([1]; temperatures between 10-50° C.) was “at least 80%”. The antifungal activity (Rhizoctonia solani) was “great antifungal activity”, the “concentration that inhibited growth” value (Rhizoctonia solani) was 15 µM and the “duration of the inhibited activity” value (Rhizoctonia solani; 15 μM) was 7 days. The antifungal activity (Phytophthora sp.) was “great antifungal activity”, the “concentration that inhibited growth” value (Phytophthora sp.) was 15 µM and the “duration of the inhibited activity” value (Phytophthora sp.; 15 μM) was 7 days. For the same molecule, the antifungal activity (Sclerotium rolfsii [2]) was “great antifungal activity”, the “concentration that inhibited growth” value (Sclerotium rolfsii [2]) was 15 µM and the “duration of the inhibited activity” value (Sclerotium rolfsii [2]; 15 μM) was 7 days. The “Relative activity toward chitosan” value [3] was 11% and 11.33 ± 2.52%, the IC50 (E. coli AD494) was roughly 2500 nM and the IC50 (E. coli ED2566) was roughly 2500 nM. The pathogenesis inhibition (Sclerotium rolfsii [4]; 5 μM) was “about 37%”, the pathogenesis inhibition (Sclerotium rolfsii [4]; 10 μM) was roughly 83% and the pathogenesis inhibition (Sclerotium rolfsii [4]; 15 μM) was roughly 98%. For the same molecule, the “Percentage of the symptom appearing” value (Sclerotium rolfsii [4]; Cabbage detached leaves, 5 μM sprayed) was 55.33 ± 6.11%, the “Percentage of the symptom appearing” value (Sclerotium rolfsii [4]; Cabbage detached leaves, 10 μM sprayed) was 14.33 ± 5.13% and the “Percentage of the symptom appearing” value (Sclerotium rolfsii [4]; Cabbage detached leaves, 15 μM sprayed) was 1.66 ± 2.88%. The “Percentage of the symptom appearing” value (Sclerotium rolfsii [4]; bell pepper detached leaves, 5 μM sprayed) was 66.67 ± 7.34%, the “Percentage of the symptom appearing” value (Sclerotium rolfsii [4]; bell pepper detached leaves, 10 μM sprayed) was 23.33 ± 7.64% and the “Percentage of the symptom appearing” value (Sclerotium rolfsii [4]; bell pepper detached leaves, 15 μM sprayed) was 3.33 ± 2.77%. The “Percentage of the symptom appearing” value (Sclerotium rolfsii [4]; tomato detached leaves, 5 μM sprayed) was 65 ± 15%, the “Percentage of the symptom appearing” value (Sclerotium rolfsii [4]; tomato detached leaves, 10 μM sprayed) was 13.33 ± 10.41% and the “Percentage of the symptom appearing” value (Sclerotium rolfsii [4]; tomato detached leaves, 15 μM sprayed) was 1.66 ± 1.32%. For the same molecule, the “Relative activity toward collodial chitin” value [5] was 59% and 58.67 ± 5.03%, the “inhibition of spore germination” value (Alternaria brassicicola; 5 μM) was 50% and the “inhibition of spore germination” value (Alternaria brassicicola; 10 μM) was 98%. The “activity retained during long-term storage” value ([6]; 3 weeks at 30° C.) was “more than 60%”, the “activity retained during long-term storage” value ([6]; 3 weeks at 37° C.) was “more than 50%” and the “hydrolyzed products of glycol chitin” value ([7]; after 1 hour) was “(GlcNAc)3”. The “hydrolyzed products of glycol chitin” value ([7]; after 2 hours) was “(GlcNAc)3, (GlcNAc)2, and (GlcNAc)” and the “hydrolyzed products of glycol chitin” value ([7]; final products) was “(GlcNAc)2 and (GlcNAc)”.
